The record followed here is patent publication US20210147536A1 (MAB VENTURE BIOPHARM, published 2021).

Test [1] deals with T1, human LAG-3-6*His tag recombinant fusion protein (human, UniProt P18627 23-450, biotin-labelled in panning and in Example 9).
T1 construct: Bought protein; also called hLAG-3-6*his tag recombinant protein; human LAG-3-his tag recombinant fusion protein
T1 sequence: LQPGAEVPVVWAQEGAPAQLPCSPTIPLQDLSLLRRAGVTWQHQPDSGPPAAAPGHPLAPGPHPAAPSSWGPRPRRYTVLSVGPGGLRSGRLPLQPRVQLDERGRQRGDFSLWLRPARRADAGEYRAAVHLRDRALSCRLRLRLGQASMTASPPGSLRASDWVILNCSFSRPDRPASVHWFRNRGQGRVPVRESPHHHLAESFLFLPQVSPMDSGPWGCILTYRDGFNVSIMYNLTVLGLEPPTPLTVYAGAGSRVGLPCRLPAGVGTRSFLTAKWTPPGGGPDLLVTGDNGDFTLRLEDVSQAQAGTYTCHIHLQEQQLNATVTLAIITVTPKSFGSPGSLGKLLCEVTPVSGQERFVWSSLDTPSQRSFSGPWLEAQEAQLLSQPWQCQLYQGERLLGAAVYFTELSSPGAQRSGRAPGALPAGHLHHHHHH
In words: BLI Octet Red96, MV705-3 on AHC sensor, human LAG-3-6*His at 1000 nM, 1:1 model. (Biolayer interferometry detects binding as a change in optical thickness at a sensor tip.)

Test [2] concerns the target T1, human LAG-3-6*His tag recombinant …. Kind of test: BLI Octet Red96, MV705-3 on AHC sensor, human LAG-3-6*His at 500 nM, 1:1 model.
Test [3] concerns the target T2, human LAG-3-mFc recombinant fusion protein (human).
T2 construct: also called hLAG-3-mFc
T2 chain: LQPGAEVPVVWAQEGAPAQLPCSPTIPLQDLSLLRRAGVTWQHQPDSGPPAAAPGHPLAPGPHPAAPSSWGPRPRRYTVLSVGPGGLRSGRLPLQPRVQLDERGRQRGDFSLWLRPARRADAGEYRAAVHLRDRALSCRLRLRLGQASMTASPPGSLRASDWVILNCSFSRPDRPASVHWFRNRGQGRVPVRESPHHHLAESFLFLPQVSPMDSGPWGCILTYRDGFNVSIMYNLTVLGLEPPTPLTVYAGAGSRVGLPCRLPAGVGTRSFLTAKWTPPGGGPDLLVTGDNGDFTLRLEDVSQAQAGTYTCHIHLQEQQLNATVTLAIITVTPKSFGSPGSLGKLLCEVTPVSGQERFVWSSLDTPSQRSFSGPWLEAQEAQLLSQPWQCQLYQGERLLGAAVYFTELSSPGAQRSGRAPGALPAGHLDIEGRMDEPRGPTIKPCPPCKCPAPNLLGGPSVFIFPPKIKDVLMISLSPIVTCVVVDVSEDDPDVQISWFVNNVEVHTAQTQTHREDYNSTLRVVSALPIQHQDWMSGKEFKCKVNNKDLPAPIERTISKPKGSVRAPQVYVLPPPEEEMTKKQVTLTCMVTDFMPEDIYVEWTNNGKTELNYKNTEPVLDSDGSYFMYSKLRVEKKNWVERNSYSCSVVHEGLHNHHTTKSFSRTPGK
In words: flow cytometry, blocking of hLAG-3-mFc (10 µg/ml) binding to MHC class II on Daudi cells.

Test [4] has as its target T1, human LAG-3-6*His tag recombinant …. In words: BLI Octet Red96, MV705-3 on AHC sensor, human LAG-3-6*His at 250 nM, 1:1 model.
Test [5] has as its target T3, human LAG-3 on the cell surface (human, UniProt P18627 23-525).
T3 construct: whole, on cells; also called cells expressing the human LAG-3
T3 sequence (looked up): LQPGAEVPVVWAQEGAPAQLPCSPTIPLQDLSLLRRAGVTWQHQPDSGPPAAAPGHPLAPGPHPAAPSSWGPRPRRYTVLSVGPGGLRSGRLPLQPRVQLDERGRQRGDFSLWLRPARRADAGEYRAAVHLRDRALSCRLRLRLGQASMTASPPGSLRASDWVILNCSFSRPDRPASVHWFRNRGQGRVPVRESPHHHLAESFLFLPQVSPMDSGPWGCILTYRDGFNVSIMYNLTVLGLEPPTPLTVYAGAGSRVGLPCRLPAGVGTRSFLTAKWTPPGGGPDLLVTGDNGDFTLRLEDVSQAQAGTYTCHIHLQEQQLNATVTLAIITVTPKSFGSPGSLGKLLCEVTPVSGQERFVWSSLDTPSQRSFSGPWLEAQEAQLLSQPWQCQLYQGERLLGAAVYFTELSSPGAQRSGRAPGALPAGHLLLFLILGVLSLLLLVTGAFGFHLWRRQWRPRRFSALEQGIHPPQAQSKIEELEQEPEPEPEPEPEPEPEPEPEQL
Kind of test: flow cytometry on activated human CD4+ T cells expressing LAG-3, PE anti-human antibody.

The target in test [6] is T1, human LAG-3-6*His tag recombinant …. Kind of test: ELISA, human LAG-3-6*His coated at 1 µg/ml, IgG4 titrated, anti-hIgG HRP. A general note: ELISA stands for enzyme-linked immunosorbent assay.
Test [7] shares this target. Kind of test: BLI (Octet Red96), biotinylated hLAG-3-6*his on SA biosensor, antibody 100 µg/mL in solution, 1:2 binding model.

B1: anti-human LAG-3 full human monoclonal antibody MV705-3 (antibody, human IgG4, V domains shown)
VH: EVQLLESGAEVKKPGASVKVSCKASGYTFTSYGISWVRQAPGQGLEWMGWISAYNGNTNYAQKLQGRVTMTTDTSTSTAYMELRSLRSDDTAVYYCARDGWWELLRPDDAFDIWGQGTTVTVSS
VL: QLVLTQSPSVSVSPGQTASITCSGDKLGDKYAYWYQQKPGQAPVLVIYYDSDRPSGIPERFSGSNSGNTATLTISRVEAGDEADYYCQVWDSSSDQVVFGGGTQLTVLG
notes: Full IgG4 with lambda light chain; also called MV705-3(DD + DD)
For the molecule B1, the Kd is 1.79 nM in test [1], 2.5 nM in test [2] and 3.04 nM in test [7]. For the same molecule, the koff in test [1] was 0.000106 s⁻¹; in test [2] it was 9.95e-05 s⁻¹; in test [4], below 1e-07 s⁻¹; in test [7], 0.000373 s⁻¹. Also, the association rate constant (kon) in test [1] was determined as 59300 M⁻¹ s⁻¹; in test [2] it was 39900 M⁻¹ s⁻¹; in test [4], 13800 M⁻¹ s⁻¹; in test [7], 122000 M⁻¹ s⁻¹. Besides, in test [3], the IC50 worked out at 2.8 mg/L. Besides, the EC50 in test [5] is 0.0019 mg/L; in test [6], 0.364 mg/L.

The Kd is the equilibrium constant for the complex coming apart. Usually koff stands for a measure of how fast the partners let go of each other. Broadly, the kon is the second-order rate constant of association. The IC50 is the concentration at which inhibition is half-maximal. Broadly, the EC50 is the concentration at which the effect is half-maximal.
